The chains are these.
B1: LOXL2 (parent)
chain: FSPDGPSRFRKAYKPEQPLVRLRG
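Also: lentivirally expressed fusions sorted by FACS into six bins by GFP to DsRed ratio, PSI derived from sequencing read proportions per bin multiplied by bin number.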

This data set covers variants of B1. The data set is described as follows: protein stability index of a GFP-peptide fusion (GPS, HEK-293T) (PSI 1-6); higher = more stable. As to conditions: c terminus: a fixed tail appended.
As to FSPDGPERFRKAYKPEQPLVRLRG, the protein stability index came to 2.01.

For FSPDGPGRFRKAYKPEQPLVRLRG, the protein stability index came out at 2.2. In the case of FSPDGPARFRKAYKPEQPLVRLRG, the protein stability index was determined as 1. On to FSPDGPYRFRKAYKPEQPLVRLRG, for which the protein stability index turned out to be 2.62. In the case of FSPDGPKRFRKAYKPEQPLVRLRG, the protein stability index was found to be 1.94. In the case of FSPDGPIRFRKAYKPEQPLVRLRG it was 2.58; in that of FSPDGPCRFRKAYKPEQPLVRLRG, 3.07; in that of FSPDGPHRFRKAYKPEQPLVRLRG, 2.54. Under FSPDGPMRFRKAYKPEQPLVRLRG stands 1.96. Take FSPDGPDRFRKAYKPEQPLVRLRG: the protein stability index turned out to be 1.69.

With FSPDGPNRFRKAYKPEQPLVRLRG, the protein stability index came out at 2.89.

For FSPDGPFRFRKAYKPEQPLVRLRG, the protein stability index worked out at 2.09. Under FSPDGPVRFRKAYKPEQPLVRLRG stands 1.64. In the case of FSPDGPTRFRKAYKPEQPLVRLRG it was 1.49; in that of FSPDGPRRFRKAYKPEQPLVRLRG, 2.05.

FSPDGPPRFRKAYKPEQPLVRLRG: the protein stability index turned out to be 2.18.

FSPDGPLRFRKAYKPEQPLVRLRG: the protein stability index was found to be 4. For the variant FSPDGPQRFRKAYKPEQPLVRLRG, the protein stability index came to 2.32. Turning to FSPDCPSRFRKAYKPEQPLVRLRG, the protein stability index was found to be 2.03.

Turning to FSPDLPSRFRKAYKPEQPLVRLRG, the protein stability index was found to be 2.02. As for FSPDEPSRFRKAYKPEQPLVRLRG, the protein stability index stood at 2.35.

In the case of FSPDRPSRFRKAYKPEQPLVRLRG, the protein stability index was determined as 1.74.

On to FSPDIPSRFRKAYKPEQPLVRLRG, for which the protein stability index stood at 2.51. Under FSPDYPSRFRKAYKPEQPLVRLRG stands 1.83; under FSPDMPSRFRKAYKPEQPLVRLRG, 1.69. Under FSPDQPSRFRKAYKPEQPLVRLRG stands 2.33; under FSPDSPSRFRKAYKPEQPLVRLRG, 2.38. In the case of FSPDKPSRFRKAYKPEQPLVRLRG it was 2.17. For the variant FSPDVPSRFRKAYKPEQPLVRLRG, the protein stability index worked out at 1.59. In the case of FSPDNPSRFRKAYKPEQPLVRLRG it was 2.66; in that of FSPDDPSRFRKAYKPEQPLVRLRG, 1.62. Under FSPDPPSRFRKAYKPEQPLVRLRG stands 2.21; under FSPDHPSRFRKAYKPEQPLVRLRG, 2.65; under FSPDFPSRFRKAYKPEQPLVRLRG, 2.33. Under FSPDTPSRFRKAYKPEQPLVRLRG stands 1.92; under FSPDAPSRFRKAYKPEQPLVRLRG, 1.47; under FSPDGPSRKRKAYKPEQPLVRLRG, 2.58.

With FSPDGPSRGRKAYKPEQPLVRLRG, the protein stability index turned out to be 3.03. Under FSPDGPSRMRKAYKPEQPLVRLRG stands 2.56; under FSPDGPSRTRKAYKPEQPLVRLRG, 2.27; under FSPDGPSRPRKAYKPEQPLVRLRG, 3.29. In the case of FSPDGPSRCRKAYKPEQPLVRLRG it was 2.78.

In the case of FSPDGPSRWRKAYKPEQPLVRLRG, the protein stability index turned out to be 2.45. Under FSPDGPSRRRKAYKPEQPLVRLRG stands 2.58. With FSPDGPSRYRKAYKPEQPLVRLRG, the protein stability index was 3.04. In the case of FSPDGPSRDRKAYKPEQPLVRLRG it was 3.29; in that of FSPDGPSRIRKAYKPEQPLVRLRG, 2.23.

With FSPDGPSRHRKAYKPEQPLVRLRG, the protein stability index was determined as 2.81. In the case of FSPDGPSRVRKAYKPEQPLVRLRG, the protein stability index came to 2.05.

With FSPDGPSRNRKAYKPEQPLVRLRG, the protein stability index stood at 2.85.

Consider FSPDGPSRARKAYKPEQPLVRLRG, for which the protein stability index came to 2.52. In the case of FSPDGPSRERKAYKPEQPLVRLRG it was 3.71; in that of FSPDGPSRQRKAYKPEQPLVRLRG, 3.94; in that of FSPDGPSRSRKAYKPEQPLVRLRG, 2.56.

In the case of FSPDGPSRLRKAYKPEQPLVRLRG, the protein stability index was 2.01. Under FSPYGPSRFRKAYKPEQPLVRLRG stands 2.82; under FSPWGPSRFRKAYKPEQPLVRLRG, 2.58; under FSPTGPSRFRKAYKPEQPLVRLRG, 2.01. Under FSPQGPSRFRKAYKPEQPLVRLRG stands 2.57. Under FSPVGPSRFRKAYKPEQPLVRLRG stands 2.38.

For FSPSGPSRFRKAYKPEQPLVRLRG, the protein stability index was determined as 1.52. Under FSPDGPSEFRKAYKPEQPLVRLRG stands 1.81; under FSPDGPSIFRKAYKPEQPLVRLRG, 4.19. In the case of FSPDGPSNFRKAYKPEQPLVRLRG it was 1.71; in that of FSPDGPSKFRKAYKPEQPLVRLRG, 1.27; in that of FSPDGPSWFRKAYKPEQPLVRLRG, 3.95. Under FSPDGPSQFRKAYKPEQPLVRLRG stands 2.42. For the variant FSPDGPSVFRKAYKPEQPLVRLRG, the protein stability index was determined as 2.88. In the case of FSPDGPSDFRKAYKPEQPLVRLRG it was 2.31; in that of FSPDGPSPFRKAYKPEQPLVRLRG, 2.76; in that of FSPDGPSLFRKAYKPEQPLVRLRG, 1.5. In the case of FSPDGPSTFRKAYKPEQPLVRLRG it was 2.1; in that of FSPDGPSYFRKAYKPEQPLVRLRG, 2.66. Under FSPDGPSSFRKAYKPEQPLVRLRG stands 2.66.

On to FSPDGPSHFRKAYKPEQPLVRLRG, for which the protein stability index came to 2.23.

With FSPDGPSFFRKAYKPEQPLVRLRG, the protein stability index worked out at 2.75. Under FSPDGPSGFRKAYKPEQPLVRLRG stands 2.02; under FSPDGPSAFRKAYKPEQPLVRLRG, 2.89; under FSPDGISRFRKAYKPEQPLVRLRG, 2.52.

Take FSPDGTSRFRKAYKPEQPLVRLRG: the protein stability index turned out to be 1.88. In the case of FSPDGASRFRKAYKPEQPLVRLRG it was 2.22; in that of FSPDGDSRFRKAYKPEQPLVRLRG, 1.63; in that of FSPDGNSRFRKAYKPEQPLVRLRG, 1.8.

Turning to FSPDGESRFRKAYKPEQPLVRLRG, the protein stability index is 2. Under FSPDGHSRFRKAYKPEQPLVRLRG stands 3.98; under FSPDGKSRFRKAYKPEQPLVRLRG, 1.98; under FSPDGMSRFRKAYKPEQPLVRLRG, 1.56.

In the case of FSPDGGSRFRKAYKPEQPLVRLRG, the protein stability index stood at 1.54. With FSPDGYSRFRKAYKPEQPLVRLRG, the protein stability index is 2.16. Under FSPDGQSRFRKAYKPEQPLVRLRG stands 2.16; under FSPDGLSRFRKAYKPEQPLVRLRG, 3.07; under FSPDGPSRFCKAYKPEQPLVRLRG, 3.46.

Regarding FSPDGPSRFEKAYKPEQPLVRLRG, the protein stability index was 2.5.

Regarding FSPDGPSRFDKAYKPEQPLVRLRG, the protein stability index was found to be 2.2.

These data come from the supplement of paper PMC10567573.
